Data: patent publication US7700101B2, “Reagents and method for modulating Dkk-mediated interactions” (Wyeth, priority 2001, dated 2010)
One block for each molecule: values may come before it.

Tests used:
[1] = system: Zmax1/LRP5 ligand binding domain (LBD) baits LBD1 and LBD4; experiment: Yeast two hybrid minimum interaction domain mapping of Dkk-1 with LRP5; details: FIG. 6
Source text: Further analysis of yeast two hybrid (Y2H) interacting proteins includes the dissection of protein motifs responsible for the interaction. Sequence alignment of multiple clones identified in the Y2H screens can help identify the smallest common region responsible for the interaction. In the absence of appropriate clones, deletion mapping of interacting domains is necessary.
PCR primers containing restriction sites suitable for cloning are designed to cover multiple sub-domains of the protein of interest (bait or prey). The methods involved in cloning, sequencing, yeast transformation, mating, and scoring of interactions are readily performed by one of ordinary skill in the art of molecular biology and genetic engineering.
The primers, which are presented in 5′ to 3′ orientation, were as follows: […]
PCR was performed using PfuTurbo® polymerase (Stratagene). The PCR products were gel purified, digested with SaflI/NotI and ligated to pPC86 (Gibco/BRL) which had been linearized with SalI/NotI.
These clones were transformed into yeast and mated with each of three yeast strains containing pDBleu (Gibco/BRL), pDBleuLBD1, and pDBleuLBD4. Positive interactions were detected by growth of the hybrids on appropriate selective media.

Wnt pathway = experiment: Xenopus embryo screening for duplicated body axis; format: in vivo; details: RNA injected into ventral blastomere; LRP5 500 pg, Wnt5a 20 pg
Source text: Modification of the Wnt signaling pathway can be visualized by examining the embryos for a dorsalization phenotype (duplicated body axis) after RNA injection into the ventral blastomere at the 4- or 8-cell stage. On the molecular level, phenotypes can be analyzed by looking for expression of various marker genes in stage 10.5 embryos. Such markers would include general endoderm, mesoderm, and ectoderm markers as well as a variety of tissue-specific transcripts.
mRNA for microinjection into Xenopus embryos is generated by in vitro transcription using the CDNA constructs in the pCS2^+ vector described above as template. RNA is synthesized using the Ambion mMessage mMachine high yield capped RNA transcription kit (Cat. #1340) following the manufacturer's specifications for the Sp6 polymerase reactions. RNA products were brought up to a final volume of 50 μl in sterile, glass-distilled water and purified over Quick Spin-Columns for Radiolabelled RNA Purification G50-Sephadex (Roche, Cat. #1274015) following the manufacturer's specifications. The resulting eluate was finally extracted with phenol:chloroform:isoamyl alcohol and isopropanol precipitated using standard protocols (Sambrook et al., 1989). Final RNA volumes were approximately 50 μl. RNA concentration was determined by absorbance values at 260 nm and 280 nm. […]

Zmax1/LRP5 ligand binding domain (LBD) baits LBD1 and LBD4, sequence (as listed by the source): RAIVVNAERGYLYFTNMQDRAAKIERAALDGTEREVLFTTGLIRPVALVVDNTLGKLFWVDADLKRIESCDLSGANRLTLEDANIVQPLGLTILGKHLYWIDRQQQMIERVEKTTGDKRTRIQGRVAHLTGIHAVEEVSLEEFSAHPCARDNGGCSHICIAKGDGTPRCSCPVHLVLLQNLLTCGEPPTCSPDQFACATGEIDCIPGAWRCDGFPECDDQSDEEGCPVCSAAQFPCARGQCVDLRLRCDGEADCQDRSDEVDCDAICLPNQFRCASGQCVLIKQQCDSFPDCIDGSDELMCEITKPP

growth of diploids on selective media (interaction with LRP5 LBD baits) [1]: no growth was observed
B1: D11: Dkk-1 fragment clone F3/R2: Val 139-Cys245 (protein)
chain: VSSDQNHFRGEIEETITESFGNDHSTLDGYSRRTTLSSKMYHTKGQEGSVCLRSSDCASGLCCARHFWSKICKPVLKEGQVCTKHRRKGSHGLEIFQRCYCGEGLSC
modifications: left off: large carriers

B2: Wnt5a: murine Wnt5a cDNA clone, RNA injected (protein, UniProt P22725 62-380, looked up)
Protein Wnt-5a: IIGAQPLCSQLAGLSQGQKKLCHLYQDHMQYIGEGAKTGIKECQYQFRHRRWNCSTVDNTSVFGRVMQIGSRETAFTYAVSAAGVVNAMSRACREGELSTCGCSRAARPKDLPRDWLWGGCGDNIDYGYRFAKEFVDARERERIHAKGSYESARILMNLHNNEAGRRTVYNLADVACKCHGVSGSCSLKTCWLQLADFRKVGDALKEKYDSAAAMRLNSRGKLVQVNSRFNSPTTQDLVYIDPSPDYCVRNESTGSLGTQGRLCNKTSEGMDGCELMCCGRGYDQFKTVQTERCHCKFHWCCYVKCKKCTEIVDQFVCK
induction of axis duplication (Wnt pathway): could not induce axis duplication
